This note sets out measurements from US20220249683A1 (MAGENTA THERAPEUTICS, published 2022).

Experiment [1] addresses T1, human CD2 on cells (human, UniProt P06729 25-351).
T1 construct: Endogenous CD2 on MOLT-4 human T lymphoblast cells, primary human T cells or primary human NK cells; The cell type is named under assay; also called CD2 on MOLT-4 cells; CD2 on primary human T-cells
T1 sequence: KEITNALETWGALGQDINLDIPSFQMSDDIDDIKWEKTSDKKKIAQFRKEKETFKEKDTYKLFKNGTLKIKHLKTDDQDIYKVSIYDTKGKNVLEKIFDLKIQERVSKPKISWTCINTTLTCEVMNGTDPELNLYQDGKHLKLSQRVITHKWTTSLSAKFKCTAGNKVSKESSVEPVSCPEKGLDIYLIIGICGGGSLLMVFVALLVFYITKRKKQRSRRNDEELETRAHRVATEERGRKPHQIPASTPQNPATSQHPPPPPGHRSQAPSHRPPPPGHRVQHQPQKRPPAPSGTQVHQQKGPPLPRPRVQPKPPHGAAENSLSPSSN
Put plainly: flow cytometry on MOLT-4 cells, antibody titration, anti-mouse AF488 secondary, 4 C.

The target of experiment [2] is T2, human CD5 on cells (human, UniProt P06127 25-495).
T2 construct: Endogenous CD5 on MOLT-4 human T lymphoblast cells or primary human T cells; The cell type is named under assay; also called CD5 on MOLT-4 cells; CD5 on primary human T-cells
T2 sequence (looked up): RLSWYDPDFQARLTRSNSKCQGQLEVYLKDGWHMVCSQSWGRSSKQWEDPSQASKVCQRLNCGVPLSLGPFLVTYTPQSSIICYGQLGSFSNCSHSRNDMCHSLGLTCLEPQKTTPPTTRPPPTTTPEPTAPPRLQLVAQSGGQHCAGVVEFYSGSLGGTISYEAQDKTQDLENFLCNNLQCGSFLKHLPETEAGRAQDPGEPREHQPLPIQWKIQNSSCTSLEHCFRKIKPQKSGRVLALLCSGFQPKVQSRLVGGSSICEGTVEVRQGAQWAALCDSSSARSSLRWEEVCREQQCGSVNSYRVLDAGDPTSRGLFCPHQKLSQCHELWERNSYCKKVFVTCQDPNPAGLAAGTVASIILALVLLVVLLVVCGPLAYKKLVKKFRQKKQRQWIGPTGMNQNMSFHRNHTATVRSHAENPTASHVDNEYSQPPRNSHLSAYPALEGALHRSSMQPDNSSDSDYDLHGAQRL
The description is as above.

In experiment [3] the target is T2, human CD5 on cells. Nature of the experiment: flow cytometry on MOLT-4 cells, antibody titration 2 h at 4 C, anti-mouse AF488 secondary, geometric MFI. Background: A flow cytometer gives signals particle by particle.
The target of experiment [4] is T3, purified human CD2 ectodomain (human, UniProt P06729 25-209).
T3 construct: Bought reagent; also called Sigma Aldrich Catalog #5086
T3 sequence: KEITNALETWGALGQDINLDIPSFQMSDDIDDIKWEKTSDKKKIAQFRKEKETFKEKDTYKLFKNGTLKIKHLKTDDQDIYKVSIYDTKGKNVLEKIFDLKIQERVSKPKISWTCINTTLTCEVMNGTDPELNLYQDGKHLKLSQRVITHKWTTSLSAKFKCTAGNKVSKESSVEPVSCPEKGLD
Put plainly: BLI (Octet Red96), IgG on anti-human Fc biosensor, 50 nM human CD2 ectodomain, 1:1 model.

The target in experiment [5] is T3, purified human CD2 ectodomain. Nature of the experiment: BLI (Octet Red96), IgG on anti-human Fc biosensor, 50 nM human CD2 ectodomain, 1:1 model, apparent monovalent affinity.
The target of experiment [6] is T4, purified human CD5 ectodomain (human, UniProt P06127 25-372).
T4 sequence (looked up): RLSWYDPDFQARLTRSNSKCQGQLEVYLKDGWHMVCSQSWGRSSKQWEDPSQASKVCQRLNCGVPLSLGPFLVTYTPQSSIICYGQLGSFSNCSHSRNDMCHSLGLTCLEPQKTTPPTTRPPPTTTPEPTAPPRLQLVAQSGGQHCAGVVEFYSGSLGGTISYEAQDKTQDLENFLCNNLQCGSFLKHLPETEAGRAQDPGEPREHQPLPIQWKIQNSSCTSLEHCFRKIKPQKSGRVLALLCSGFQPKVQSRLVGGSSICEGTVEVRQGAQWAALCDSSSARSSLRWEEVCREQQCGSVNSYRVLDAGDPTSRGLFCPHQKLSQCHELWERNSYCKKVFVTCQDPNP
Put plainly: BLI (Octet Red96), IgG on anti-human Fc biosensor, 50 nM human CD5 ectodomain.
Description: To determine the binding characteristics of anti-CD5 antibody 5D7 hIgG1, antibody binding studies were performed at 25 degrees celsius in 1×PBS supplemented with 0.1% w/v bovine serum albumin with a Pall ForteBio Octet Red96 using biolayer interferometry (BLI).

For experiment [7], the target named is T2, human CD5 on cells. Put plainly: flow cytometry on primary human T-cells, antibody titration 2 h at 37 C, AF488 secondary.
The target in experiment [8] is T2, human CD5 on cells. Put plainly: flow cytometry on primary human T-cells, antibody titration 2 h at 37 C, AF488 secondary, MFI.
Description: Secondary anti-mouse AF488 stain, at a constant amount, was added for 30 minutes at 4° C.
Experiment [9] concerns the target T3, purified human CD2 ectodomain. Put plainly: BLI (Octet Red96), IgG on anti-murine Fc biosensor, 50 nM human CD2 ectodomain, 1:1 model, apparent monovalent affinity.
For experiment [10], the target named is T1, human CD2 on cells. Nature of the experiment: flow cytometry on primary human T-cells, antibody titration 2 h at 37 C, AF488 secondary, MFI.
Description: Primary human T-cells were plated at 8×10⁴ cells/well and stained with a titration of the murine anti-CD23 antibody RPA-2.10 for 2 hours at 37° C. Secondary anti-mouse or anti-human AF488 stain, relative to primary antibody, at a constant amount, was added for 30 minutes at 4° C. After washing, plates were run on a flow cytometer and binding of the indicated antibody (and the negative control, i.e., mIgG1 or hIgG1) was determined based on geometric mean fluorescence intensity in the AF488 channel.
The target of experiment [11] is T3, purified human CD2 ectodomain. Put plainly: BLI (Octet Red96), IgG on anti-murine Fc biosensor, 50 nM human CD2 ectodomain, 1:1 model. Background: Biolayer interferometry detects binding as a change in optical thickness at a sensor tip.
Experiment [12] has as its target T1, human CD2 on cells. Nature of the experiment: flow cytometry on primary human T-cells, antibody titration 2 h at 37 C, AF488 secondary.

Broadly, the EC50 is the concentration giving half of the maximal effect. Low readings indicate higher potency in that assay, high ones lower potency in that assay. As a reminder, the EC50 (read off the curve) is the concentration giving half of the maximal effect. The koff is a measure of how fast the partners let go of each other. A lower koff goes with a long-lived complex. By kon is commonly meant the rate constant with which the complex forms. Higher therefore signals fast association.

With murine anti-CD2 antibody TS1/8, the EC50 in experiment [1] was 0.125 nM.

Take “murine anti-CD5 antibody UCHT2 (BioLegend)”: the EC50 in experiment [2] turned out to be 0.354 nM. In addition, the half-maximal effective concentration (EC50 (read off the curve)) in experiment [3] turned out to be 0.3 nM.

In experiment [2], “murine anti-CD5 antibody CRIS-1 (Novus Biologicals)” came in with an EC50 of 0.043 nM. In experiment [3], this molecule came in with an EC50 (read off the curve) of 0.04 nM.

B1: anti-CD2 antibody Ab1 hIgG1 (antibody, V domains shown)
VH: QVQLVQSGAEVKKPGASVKVSCKASGYTFTEYYMYWVRQAPGQGLELMGRIDPEDGSIDYVEKFKKKVTLTADTSSSTAYMELSSLTSDDTAVYYCARGKFNYRFAYWGQGTLVTVSS
VL: DVVMTQSPPSLLVTLGQPASISCRSSQSLLHSSGNTYLNWLLQRPGQSPQPLIYLVSKLESGVPDRFSGSGSGTDFTLKISGVEAEDVGVYYCMQFTHYPYTFGQGTKLEIK
notes: Tested as human IgG1 (hIgG1)
Regarding B1, in experiment [4], the koff is 0.000289 s⁻¹ and the kon is 136000 M⁻¹ s⁻¹. Further, the Kd in experiment [5] was 2.12 nM.

B2: anti-CD5 antibody 5D7 hIgG1 (humanized version of murine antibody 5D7) (antibody, V domains shown)
VH: QVTLKESGPVLVKPTETLTLTCTFSGFSLSTSGMGVGWIRQAPGKGLEWVAHIWWDDDVYYNPSLKSRLTITKDASKDQVSLKLSSVTAADTAVYYCVRRRATGTGFDYWGQGTLVTVSS
VL: NIVMTQSPSSLSASVGDRVTITCQASQDVGTAVAWYQQKPDQSPKLLIYWTSTRHTGVPDRFTGSGSGTDFTLTISSLQPEDIATYFCHQYNSYNTFGSGTKLEIK
notes: Tested as human IgG1 (hIgG1); also called anti-CD5 5D7 antibody; humanized 5D7
Turning to B2, in experiment [6], the Kd turned out to be 0.141 nM, the koff turned out to be 3.36e-05 s⁻¹ and the kon amounted to 239000 M⁻¹ s⁻¹. Besides, the response in experiment [7] was half-maximal at 0.003 nM (EC50). Besides, in [8], the “EC50 (read off the curve)” value is roughly 0.03 nM.

B3: anti-CD2 antibody RPA-2.10 mIgG1 (antibody, V domains shown)
VH: EVKLVESGGGLVKPGGSLKLSCAASGFTFSSYDMSWVRQTPEKRLEWVASISGGGFLYYLDSVKGRFTISRDNARNILYLHMTSLRSEDTAMYYCARSSYGEIMDYWGQGTSVTVSS
VL: DILLTQSPAILSVSPGERVSFSCRASQRIGTSIHWYQQRTTGSPRLLIKYASESISGIPSRFSGSGSGTDFTLSINSVESEDVADYYCQQSHGWPFTFGGGTKLEIER
notes: Murine IgG1; also called mRPA-2.10; murine anti-CD2 antibody RPA-2.10
With B3, in experiment [9], the Kd is 2 nM. In experiment [10], the “EC50 (read off the curve)” value is roughly 0.03 nM. In experiment [1], the concentration for a half-maximal effect (EC50) was determined as 0.16 nM. In experiment [11], this molecule returned a koff of 0.000172 s⁻¹ and a kon of 86000 M⁻¹ s⁻¹. This molecule also came in with an EC50 in experiment [12] of 0.00184 nM.
